Assay: soluble on expression in E. coli; label from the status in PepcDB or PDB records

Sequence | soluble on expression in E. coli
MHHHHHHSSGRENLYFQGSTRGKVVLHTSLGDLDVELWARECPLACRNFVQLCLEGYYVNTIFHRVVKDFIVQGGDPTGTGRGGADTTFDGKPFDVETHPRLKFRYRGLVGVANLGRSSKDAENDERGRSLGTNGNQFFITLARADVLNNAYTLFGKVTGHTLYNLMKFNDLEVGKEDRPMTPPFIKSVDVLWNPFEDLVPRRLPDAPPAQKDERKRARAAGGRTTEGRARS | soluble
MHHHHHHSSGVDLGTENLYFQSMATGQKLMRAVRVFEFGGPEVLKLRSDIAVPIPKDHQVLIKVHACGVNPVETYIRSGTYSRKPLLPYTPGSDVAGVIEAVGDNASAFKKGDRVFTSSTISGGYAEYALAADHTVYKLPEKLDFKQGAAIGIPYFTAYRALIHSACVKAGESVLVHGASGGVGLAACQIARAYGLKILGTAGTEEGQKIVLQNGAHEVFNHREVNYIDKIKKYVGEKGIDIIIEMLANVNLSKDLSLLSHGGRVIVVGSRGTIEINPRDTMAKESSIIGVTLFSSTKEEFQQYAAALQAGMEIGWLKPVIGSQYPLEKVAEAHENIIHGSGATGKMILLL | soluble
MHHHHHHSSGVDLGTENLYFQSNAMKKVLIVFGTRPEAIKMAPLVQQLCQDNRFVAKVCVTGQHREMLDQVLELFSITPDFDLNIMEPGQTLNGVTSKILLGMQQVLSSEQPDVVLVHGDTATTFAASLAAYYQQIPVGHVEAGLRTGNIYSPWPEEGNRKLTAALTQYHFAPTDTSRANLLQENYNAENIFVTGNTVIDALLAVREKIHTDMDLQATLESQFPMLDASKKLILVTGHRRESFGGGFERICQALITTAEQHPECQILYPVHLNPNVREPVNKLLKGVSNIVLIEPQQYLPFVYLMDRAHIILTDSGGIQEEAPSLGKPVLVMRETTERPEAVAAGTVKLVGTNQQQICDALSLLLTDPQAYQAMSQAHNPYGDGKACQRIADILAK | soluble
MHHHHHHSSGVDLGTENLYFQSNAMTNIQKRFYKGRVALNVLANNIENAKDIFEAAEGYVVVGVLSKDYPTVEEAVTAMKAYGKEIDDAVSIGLGAGDNRQAAVVAEIAKHYPGSHINQVFPSVGATRANLGEKDSWINSLVSPTGKVGYVNISTGPISAAGEEKAIVPIKTAIALVRDMGGNSLKYFPMKGLAHEEEYRAVAKACAEEGFALEPTGGIDKENFETIVRIALEANVEQVIPHVYSSIIDKETGNTKVEAVRELLAVVKKLVDQYA | soluble
MHHHSHHHHSHMDVTIQHPWFKRTLGPFYPSRLFDQFFGEGLFEYDLLPFLSSTISPYYRQSLFRTVLDSGISEVRSDRDKFVIFLDVKHFSPEDLTVKVQDDFVEIHGKHNERQDDHGYISREFHRRYRLPSNVDQSALSCSLSADGMLTFCGPKIQTGLDATHAERAIPVSREEKPTSAPSSLEIRLLLEIRLL | soluble
MHHIETTKLSRRAFLKKLTRTSFSAALMMAAASGYARWIEPAELTVTHHALSHPLIPKSFAGVKLLQFSDLHLGHYYGLERFYRIMGRINELGPDLVVFTGDLLHEANRYPHVDAVAEALAGVRAPLGKFCIYGNHDHGGYGTDIYRRLMERAGFRVLVNEHALVRRGHGAIAIAGSDDMMLGRPDWSKMTNGIPRATYTIALVHEPDGAIEARRFPIHVQLSGHSHGGQIQLPFIGPLITPPLSERYYEGFYHVGGLLLYVNRGLGTTRVPLRFFAPPELTVFSLAPG | not soluble
MHHLILGYGYCGYYLAQELLGHHQQVTVVSRQLKKELELSKLQHISHDLEYPFHWSEPDSIIYYLIPPPSQGTCDTFLQQFLNQSSLNAKKIIYFGSSGVYGNHQGAWVDELSACIIDSPRQQRRLDAEQQWLAYCQQHNKELSLLRIAGIYGPNRIPADAAKSKIPIIKPTEAPFTNHIFVKDLALIAYLLGQKQTTSAVYNVADGNPTHMGELQQTVANALGIESASYESFEQAWEKASPMKREFMRASKRLKIDLLKTALGEDIQFTSLYDAVKQSL | not soluble
MHIESPIKRRQSTRIYVGNVPIGDGAPIAVQSMTNTRTTDVDATVAQIKSLEKVGADIVRVSVPTMDAAEAFKVIKQQVSVPLVADIHFDYRIALQVAEYGVDCLRINPGNIGNEQRIRSVVDCARDKNIPIRIGVNGGSLEKDIQAKYKEPTAEALLESAMRHVDILDRLNFDQFKVSVKASDVFLAVDSYRLLAKQIAQPLHLGITEAGGARAGSVKSAVGLGMLLSEGIGDTLRISLAADPVEEIKVGFDILKSLRIRSRGINFIACPTCSRQEFDVIATVNELEQRLEDLITPMDVSLIGCVVNGPGEAEVSHMGIAGSNRKSAFYEDGVRQKERFDNDNIVDQLEAKIRAKAATLSKENQIDINQID | not soluble
MHIQRKSTMSKCSADETPVCCCMDVGTIMDNSDCTASYSRVFANRAEAEQTLAALTEKARSVESEPCKITPTFTEESDGVRLDIDFTFACEAEMLIFQLGLR | not soluble
MHKVQRSVLVPYSAAQMFDLVADVEKYPEFMPWCGGAEVHSRSEHGMQASILISFAGLKQRFSTRNTHDYPQRIDLELVDGPFSMLVGHWVFQPLAEDACKVLFTLEYAFSNRALEMVVGPVFNRIAASFIDSFTKRAQAKYGEAAALEHHHHHH | soluble
MHKVSATLLIIDDDEVVRESLAAYLEDSNFKVLQALNGLQGLQIFESEQPDLVICDLRMPQIDGLELIRRIRQTASETPIIVLSGAGVMSDAVEALRLGAADYLIKPLEDLAVLEHSVRRALDRAYLRVENQRYRDKLEAANRELQASLNLLQEDQNAGRQVQMNMLPVTPWSIEGLEFSHRIIPSLYLSGDFVDYFRVDERRVAFYLADVSGHGASSAFVTVLLKFMTTRLLYESRRNGTLPEFKPSEVLAHINRGLINTKLGKHVTMLGGVIDLEKNSLTYSIGGHLPLPVLFVEGQAGYLEGRGLPVGLFDDATYDDRVMELPPSFSLSLFSDGILDVLPGATLKEKEASLPEQVAAAGGTLDGLRQVFGLANLAEMPDDIALLVLSRNLA | soluble
MHLYSSDFPLMMDEKELYEKWMRTVEMLKAEGIIRSKEVERAFLKYPRYLSVEDKYKKYAHIDEPLPIPAGQTVSAPHMVAIMLEIANLKPGMNILEVGTGSGWNAALISEIVKTDVYTIERIPELVEFAKRNLERAGVKNVHVILGDGSKGFPPKAPYDVIIVTAGAPKIPEPLIEQLKIGGKLIIPVGSYHLWQELLEVRKTKDGIKIKNHGGVAFVPLIGEYGWKEHHHHHH | soluble
MHNMFPALTKTLSLQGYKIINSQTGSAAWSCGRRWFSSDKDDHDDVVTRIKIAPIKRTNEPLDKKRARLIYQSRKRGILETDLLLSGFAAKYLKKMNEEELEEYDSLLNELDWDIYYWATKNFKTSPLPDKWANSKLLKQLQEFSENKEKEILSMPDLSKYQ | soluble
MHPTAAALIRTLGLAPHPEGGHYRRVYASTRQVLDDSGAPPRPALTAIRFLLCAGEASRWHRVDAEECWHWQQGAPLELLIFDEASGQLRREVLDAAERGDAMHVVPAGCWQAARSLGDFTLVGCTVSPGFVWEGFALLEDGSPLAAQLAALVAEGAAPEPPTLPLEHHHHHH | not soluble
MHQVISATTNPAKIQAILQAFEEIFGEGSCHITPVAVESGVPEQPFGSEETRAGARNRVDNARRLHPQADFWVAIEAGIDDDATFSWVVIDNGVQRGEARSATLPLPAVILDRVRQGEALGPVMSQYTGIDEIGRKEGAIGVFTAGKLTRSSVYYQAVILALSPFHNAVYR | soluble
MHRLRNLREDVSDGSLGHGGGGLMYDVVVVGAGPAGSMAAKTAAEQGLKVLLVEKRQEIGTPVRCAEGISRESIEKFFEVDKKWIAAEVTGAKIYAPNKTEIVMSEEMAGNEVGYVLERKIFDRHVARLAAKAGAEVYVKTAMVDFERKDGKVKVKLRRLGEDWEVETKILIGADGVESKIGRKAGIIKTLKLNEVESCAQYLMTGLDIDESYTYFYLGRELAPGGYAWIFPKGNGSANVGIGVLPKMAERTAKEYLDAFIEKEGIEGKIVEFVAGAVPVYGEIETAVADNIMLAGDAAYHADPITGGGIANALSAGYYAGKVAAEAVQKNDFSADFLRRYDELWKNDFGKKLRRNKKLQLKFIDMDDALLNKLAGAIAGKNLREMSVAAIVKELLKAHPKLLWDLKDLFLEHHHHHH | soluble
MHRYLWQQADGKRHVYDTTRHRIQAEHSFTALCGETVIPRTERGDLTAGLWFDGECPVCTIALAKALGWPMRELADLAHRFTWSPELLARLAEILHCTSGEVAELTGARTVDT | not soluble

Source: the DeepSol protein solubility set
